Key:
[1] = molecular target: human PAR-2 (proteinase activated receptor-2) (human) (UniProt P55085); test: cell-based or functional assay
[2] = molecular target: PAR-2 expressed on cells, species not stated (Homo sapiens (Human)) (UniProt P55085); test: cell-based or functional assay

IC50 HCT-116, FLIPR Ca2+ mobilization [1]: > 2000 nM
IC50 KNRK, FLIPR Ca2+ mobilization [2]: > 2000 nM
Substance: SAM11 monoclonal antibody to PAR-2

Source: patent publication US20070237759A1
